# What was measured:
# [1] = Temperature optimum of heterologously produced endoglucanases; type: biochemical; conditions: temperature range 50-85° C., CMC
# Procedure: The pH optimum of the heterologously produced endoglucanases was determined in the universal McIlvaine's buffer within a pH range of 4.0-8.0 using carboxymethylcellulose as substrate. As shown in FIG. 6 A the broadest pH range (4.5-6.0) is that of the Acremonium EG—40/Cel45A protein, the optimum being at pH 5.5. The pH optima for the other heterologously produced endoglucanases are pH 5.0-5.5 and 6.0 for Acremonium EG—40_like/Cel45B and Thermoascus EG—28/Cel5A, respectively. The optimal temperature for enzymatic activity of these endoglucanases was determined at the temperature range of 50-85° C. as described above. The highest activity of the enzymes was determined to be at 75° C., 60° C., and 75° C. for the Acremonium EG—40/Cel45A, EG—40 like/Cel45B, and Thermoascus EG—28/Cel5A, respectively (FIG. 6 B).
# [2] = Isoelectric focusing (PhastSystem), pI of purified protein; type: physicochemical; conditions: IEF gel
# Procedure: The sample was dissolved in water and applied to a Superdex 75 HR 10/30 gel filtration column equilibrated with 20 mM sodium phosphate pH 6.0, containing 0.15 M NaCl. Fractions were collected and those containing endoglucanase activity were combined. The protein eluate was judged to be pure by SDS-polyacrylamide gel electrophoresis and the molecular mass was evaluated on the basis of molecular mass standards (prestained SDS-PAGE standards, Broad Range, Bio-Rad) to be 54 kDa. The pI of the purified protein, designated as Ct EG—54 was determined with PhastSystem (Pharmacia) to be ca 5.5.
# The sample was applied to a Sephacryl S-100 HR 26/60 gel filtration column equilibrated with 50 mM sodium acetate buffer pH 5.0, containing 0.05 M NaCl. The protein fraction containing endoglucanase activity was eluted from the column with a retention volume corresponding to a molecular weight of 16 kDa. Collected fractions were combined, concentrated and gel filtration was repeated. The protein eluate was judged to be pure by SDS-polyacryl amide gel electrophoresis and the molecular weight was evaluated to be 28 kDa. The pI of the purified protein, designated as Ta EG—28, was determined in an IEF gel (PhastSystem, Pharmacia) to be about 3.5. The specific activity of Ta EG—28 at 50° C. was determined to be 4290 nkat/mg (procedure of IUPAC 1987, using CMC as substrate).
# The active material from the anion exchange chromatography was applied to a Sephacryl S-300 HR 26/60 column equilibrated with 20 mM sodium phosphate pH 6.5, containing 0.15 M NaCl. The protein with β-glucosidase activity was eluted with a retention volume corresponding to a molecular weight of 243 kDa. The protein was judged to be pure by SDS-polyacrylamide gel electrophoresis and the molecular weight was evaluated to be 101 kDa. The pI of the purified protein, designated as At βG—101, was determined in an IEF gel (PhastSystem, Pharmacia) to be in the area of 5.6-4.9. The specific activity of At βG—101 at 50° C. was determined to be 1100 nkat/mg (using 4-nitrophenyl-β-D-glucopyranoside as substrate, Bailey and Linko, 1990).
# The active material from the cation exchange chromatography was applied to a Sephacryl S-300 HR 26/60 column equilibrated with 20 mM sodium phosphate pH 7.0, containing 0.15 M NaCl. The protein with β-glucosidase activity was eluted with a retention volume corresponding to a molecular weight of 294 kDa. […] The protein was judged to be pure by SDS-polyacrylamide gel electrophoresis and the molecular weight was evaluated to be 81 kDa, representing most likely the monomeric form of the protein. […] The specific activity of the purified protein, designated as Ta βG—81, at 50° C. was determined to be 600 nkat/mg using 4-nitrophenyl-β-D-glucopyranoside as substrate (Bailey and Linko, 1990). […]
# [3] = Endoglucanase activity on carboxymethyl cellulose; type: biochemical; conditions: purified endoglucanase, 50° C., procedure of IUPAC 1987
# In short: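 Endoglucanase activity of purified enzymes from Acremonium thermophilum ALKO4245 and Thermoascus aurantiacus ALKO4242 measured on carboxymethyl cellulose by the IUPAC 1987 standard procedure. Protein by Lowry for purified preparations; the A. thermophilum supernatant was pre-incubated 24 h at 70 °C before purification.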
molecule,measurement,setting,value
"Ta EG_28: endoglucanase of Thermoascus aurantiacus ALKO4242, gene Ta cel5A, amino acid SEQ ID NO: 10 (protein) MKLGSLVLALSAARLTLSAPLADRKQETKRAKVFQWFGSNESGAEFGSQNLPGVEGKDYIWPDPNTIDTLISKGMNIFRVPFMMERLVPNSMTGSPDPNYLADLIATVNAITQKGAYAVVDPHNYGRYYNSIISSPSDFQTFWKTVASQFASNPLVIFDTNNEYHDMDQTLVLNLNQAAIDGIRSAGATSQYIFVEGNSWTGAWTWTNVNDNMKSLTDPSDKIIYEMHQYLDSDGSGTSATCVSSTIGQERITSATQWLRANGKKGIIGEFAGGANDVCETAITGMLDYMAQNTDVWTGAIWWAAGPWWGDYIFSMEPDNGIAYQQILPILTPYL",Temperature of highest activity,[1],75 °C
same,pI of the purified protein,[2],about 3.5
same,Specific activity on CMC,[3],4290 nkat/mg
